For this data set, the target named is SARS-CoV-2 spike pseudotyped lentivirus (PV) (SARS-CoV-2 (Wuhan-Hu-1)) (UniProt P0DTC2). Description: dot blot (filter binding).

Consider two sequences from PMC8287928.

By Kd is commonly meant a measure of binding affinity in units of concentration.

Consider “TTACGTCAAGGTGTCACTCCACGGGTTTGGCGTCGGGCCTGGCGGGGGGATAGTGCGGTGGAAGCATCTCTTTGGCGTG [MSA5]”, for which the Kd was found to be 0.0118 nM. In other words, the picomolar range.
Take “TTACGTCAAGGTGTCACTCCCACTTTCCGGTTAATTTATGCTCTACCCGTCCACCTACCGGAAGCATCTCTTTGGCGTG [MSA1]”: the dissociation constant Kd came to 0.0227 nM.
